doi:10.1101/2024.08.28.610080

Experiments:
Test in all cases: EMSA
[1] = target: POLγA Y951N;POLγB (processivity subunit, B2) (human;human, UniProt P54098;Q9UHN1 26-1239;26-485, Y951N|)
[2] = target: POLγA WT;POLγB (processivity subunit, B2) (human;human, UniProt P54098;Q9UHN1 26-1239;26-485, |)
POLγA Y951N = POLγA Y951N (human, UniProt P54098 26-1239, Y951N)
POLγA WT = POLγA WT (human, UniProt P54098 26-1239)

Measured: binding result

Chain of POLγA Y951N;POLγB (processivity subunit, B2) (P54098 26-1239 Y951N, chain 1 of 2): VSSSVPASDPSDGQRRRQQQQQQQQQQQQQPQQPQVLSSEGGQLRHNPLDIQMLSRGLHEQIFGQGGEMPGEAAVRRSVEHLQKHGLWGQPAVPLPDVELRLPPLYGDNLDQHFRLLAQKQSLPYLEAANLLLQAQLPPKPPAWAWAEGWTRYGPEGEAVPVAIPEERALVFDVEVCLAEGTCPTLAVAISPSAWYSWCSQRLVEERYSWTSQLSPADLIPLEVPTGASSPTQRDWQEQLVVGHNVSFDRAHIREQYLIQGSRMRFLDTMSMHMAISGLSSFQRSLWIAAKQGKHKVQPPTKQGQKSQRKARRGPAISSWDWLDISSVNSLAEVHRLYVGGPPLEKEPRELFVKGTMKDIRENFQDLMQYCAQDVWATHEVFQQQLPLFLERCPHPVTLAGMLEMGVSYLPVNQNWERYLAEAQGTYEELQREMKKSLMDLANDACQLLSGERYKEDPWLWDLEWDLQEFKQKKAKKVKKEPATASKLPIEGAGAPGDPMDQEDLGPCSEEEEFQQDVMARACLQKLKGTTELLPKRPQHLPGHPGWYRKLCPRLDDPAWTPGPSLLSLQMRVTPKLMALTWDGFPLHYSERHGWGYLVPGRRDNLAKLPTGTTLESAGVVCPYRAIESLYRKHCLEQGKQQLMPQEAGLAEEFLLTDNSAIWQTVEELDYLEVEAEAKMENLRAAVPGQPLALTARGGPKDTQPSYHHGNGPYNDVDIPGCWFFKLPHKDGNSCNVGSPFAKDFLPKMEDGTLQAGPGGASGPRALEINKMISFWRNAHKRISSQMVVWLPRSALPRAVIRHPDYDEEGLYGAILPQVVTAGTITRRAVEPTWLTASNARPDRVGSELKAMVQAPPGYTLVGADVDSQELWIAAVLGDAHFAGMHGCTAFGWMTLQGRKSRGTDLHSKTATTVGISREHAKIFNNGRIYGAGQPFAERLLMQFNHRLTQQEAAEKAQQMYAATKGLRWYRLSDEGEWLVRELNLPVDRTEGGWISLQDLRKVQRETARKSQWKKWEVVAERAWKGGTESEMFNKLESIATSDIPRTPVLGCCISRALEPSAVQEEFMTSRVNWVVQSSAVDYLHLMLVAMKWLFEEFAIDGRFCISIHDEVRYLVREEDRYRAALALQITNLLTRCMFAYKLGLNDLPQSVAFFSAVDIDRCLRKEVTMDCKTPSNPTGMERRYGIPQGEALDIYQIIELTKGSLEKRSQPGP
Chain of POLγA Y951N;POLγB (processivity subunit, B2) (Q9UHN1 26-485, chain 2 of 2): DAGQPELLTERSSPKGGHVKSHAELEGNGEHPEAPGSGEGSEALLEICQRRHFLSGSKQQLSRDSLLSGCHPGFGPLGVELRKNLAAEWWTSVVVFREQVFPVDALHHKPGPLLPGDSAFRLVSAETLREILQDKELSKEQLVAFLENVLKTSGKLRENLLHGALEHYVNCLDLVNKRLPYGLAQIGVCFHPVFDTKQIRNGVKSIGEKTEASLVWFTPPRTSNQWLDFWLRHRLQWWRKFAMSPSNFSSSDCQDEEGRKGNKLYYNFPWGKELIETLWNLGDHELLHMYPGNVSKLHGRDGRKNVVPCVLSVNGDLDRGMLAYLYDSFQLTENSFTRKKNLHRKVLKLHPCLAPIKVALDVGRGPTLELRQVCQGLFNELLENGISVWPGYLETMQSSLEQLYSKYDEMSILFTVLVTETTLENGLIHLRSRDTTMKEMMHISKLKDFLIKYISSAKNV
Chain of POLγA Y951N (P54098 26-1239 Y951N): as the sequence (P54098 26-1239 Y951N, chain 1 of 2) above
Chain of POLγA WT;POLγB (processivity subunit, B2) (P54098 26-1239, chain 1 of 2): as the sequence (P54098 26-1239 Y951N, chain 1 of 2) above, with N926Y counted along it
Chain of POLγA WT;POLγB (processivity subunit, B2) (Q9UHN1 26-485, chain 2 of 2): as the sequence (Q9UHN1 26-485, chain 2 of 2) above
Chain of POLγA WT (P54098 26-1239): as the sequence (P54098 26-1239 Y951N, chain 1 of 2) above, with N926Y counted along it

B1: 25/40 nt TET-ddC primer/template (EMSA) (dsDNA)
DNA 1: GCAGTGAATTTCTGCAGGTCGACTC
DNA 2: GCGGGTTGACCTTTGGAGTCGACCTGCAGAAATTCACTGC
modifications: 3'-ddC on both strands
binds: all assays above
